Laboratory results reported in patent US6649392 (US Dept. of Health and Human Services, dated 2003).

T1: RNase A (bovine pancreatic) (bovine, UniProt P61823 27-150)
T1 construct: also called bovine RNase A
T1 sequence (looked up): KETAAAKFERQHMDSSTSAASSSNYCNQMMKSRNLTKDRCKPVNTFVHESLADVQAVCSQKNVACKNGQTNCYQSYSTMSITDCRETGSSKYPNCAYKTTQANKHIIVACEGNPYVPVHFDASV

B1: placental ribonuclease inhibitor (other, UniProt P13489 2-461, looked up)
chain: SLDIQSLDIQCEELSDARWAELLPLLQQCQVVRLDDCGLTEARCKDISSALRVNPALAELNLRSNELGDVGVHCVLQGLQTPSCKIQKLSLQNCCLTGAGCGVLSSTLRTLPTLQELHLSDNLLGDAGLQLLCEGLLDPQCRLEKLQLEYCSLSAASCEPLASVLRAKPDFKELTVSNNDINEAGVRVLCQGLKDSPCQLEALKLESCGVTSDNCRDLCGIVASKASLRELALGSNKLGDVGMAELCPGLLHPSSRLRTLWIWECGITAKGCGDLCRVLRAKESLKELSLAGNELGDEGARLLCETLLEPGCQLESLWVKSCSFTAACCSHFSSVLAQNRFLLELQISNNRLEDAGVRELCQGLGQPGSVLRVLWLADCDVSDSSCSSLAATLLANHSLRELDLSNNCLGDAGILQLVESVRQPGCLLEQLVLYDIYWSEEMEDRLQALEKDKPSLRVIS
notes: also called PRI
B2: native Onc purified from the eggs of Rana pipiens (enzyme, UniProt P22069 1-104, looked up)
chain: QDWLTFQKKHITNTRDVDCDNIMSTNLFHCKDKNTFIYSRPEPVKAICKGIIASKNVLTTSEFYLSDCNVTSRPCKYKLKKSTNKFCVTCENQAPVHFVGVGSC
modifications: pyroglutamyl residue at position 1 (amino terminus)
notes: mature; also called nOnc; ONCONASE
B3: recombinant Met(-1) human pancreatic ribonuclease (enzyme)
chain: MKESRAKKFQRQHMDSDSSPSSSSTYCNQMMRRRNMTQGRCKPVNTFVHEPLVDVQNVCFQEKVTCKNGQGNCYKSNSSMHITDCRLTNGSRYPNCAYRTSPKERHIIVACEGSPYVPVHFDASVEDST
notes: mature; also called rhRNase; hRNase

How the values were obtained:
[1] = target: T1, RNase A (bovine pancreatic); experiment: steady-state tight-binding inhibition of RNase activity (CpA substrate, spectrophotometric); row RNaseA
Experimental: (§1) Steady-state inhibition constants (K_i) for PRI interaction were determined using a modification of a method (Vincentini et al., Biochemistry 29:8827–8834 (1990)) to analyse competitive slow tight-binding inhibition mechanisms. Steady-state rates of product formation were calculated by a spectrophotometric method. […] The reaction was started by the addition of enzyme (0.01 to 2 nM depending on the assayed protein) and followed during 90–120 min. Several inhibitor concentrations were distributed below and above the enzyme concentration. […] The amount of product formed was calculated by following the absorbance decrease at 286 nm for CpA (change in ε=521 M^-1) and at 280 nm for UpG (change in ε=757 M^-1 cm^-1). The calculated steady-state rates for each inhibitor concentration were fitted by nonlinear regression to the equation for tight binding inhibition as described by Vicentini et al. (1990). In each case $I50$, defined as the total inhibitor concentration required to give 50% inhibition, were deduced from the V_s-I Dixon plot and compared to the calculated K_i, considering in each case the total enzyme concentration.
(§2) [a]K_i values were calculated from the observed steady-state rates (v_s) at different inhibitor concentrations, by fitting the data to the tight-binding non-linear regression equation.

[2] = target: B2; experiment: approximate Ki calculated from I50, inhibition of RNase activity (UpG substrate, spectrophotometric); row nOnc
Experimental: as §1, §2

[3] = target: rOnc1-9-hRNase12-127 hybrid (Rana pipiens; human) (UniProt P07998); experiment: steady-state tight-binding inhibition of RNase activity (CpA substrate, spectrophotometric); row rOnc1-9-hRNase12-127
[4] = target: rhRNase1-11-rOnc10-104 hybrid (human; Rana pipiens) (UniProt P07998); experiment: approximate Ki from I50, inhibition of RNase activity by PRI
[5] = target: rOnc1-9-hRNase12-127 hybrid (Rana pipiens; human) (UniProt P07998); experiment: steady-state inhibition of RNase activity by PRI
[6] = target: B3; experiment: steady-state tight-binding inhibition of RNase activity (CpA substrate, spectrophotometric); row rhRNase
Experimental: as §1, §2

[7] = target: rhRNase1-11-rOnc10-104 hybrid (human; Rana pipiens) (UniProt P07998); experiment: approximate Ki calculated from I50, inhibition of RNase activity (UpG substrate, spectrophotometric); row rhRNase1-11-Onc10-104
[8] = target: B1; experiment: steady-state inhibition of RNase activity by PRI
Experimental: as §1, §2

| Ki [1] | Ki [2] | Ki [3] | fold increase of PRI affinity in relation to Onc [4] | fold increase of Ki in relation to rhRNase [5] | Ki [6] | Ki [7] | binding result [8] | Binder |
| --- | --- | --- | --- | --- | --- | --- | --- | --- |
| 0.058 pM | ≥ 100000 nM | 0.0056 nM | 3 fold | 30 fold | 0.0002 nM | > 400 nM |  | B1 |
|  |  |  |  |  |  |  | binds | B2 |
|  |  |  |  |  |  |  | binds | B3 |
